The values below come from patent US20190048055A1.

The target in this test is CD38 molecules expressed on Daudi human B-cell lymphoma cells (human) (UniProt P28907). The experiment in a line: cell-based or functional assay.

Take anti-CD38 Ab (daratumumab) (antibody): the ADCC of human PBMCs against Daudi cells, dose response of anti-CD38 Ab (0.1 nM to 50 nM); lowest antibody concentration with increased killing amounted to 0.1 nM.
